Values of other authors as cited in article PMC3166974.
pKd: −log10 of the molar value.

Columns and labels:
SecA (Escherichia coli) = SecA (Escherichia coli) (UniProt P10408)
PKR (Homo sapiens) = PKR (Homo sapiens) (UniProt P19525)

| Substance | pKd (SecA (Escherichia coli)) | pKd (PKR (Homo sapiens)) |
| --- | --- | --- |
| SecA (from UniProt P10408) | 4.73 |  |
| PKR (from UniProt P19525) |  | 3.30 |
